Tested on: tip cell colonies
Assay: Reconstitution of iUB organoids from tip cell colonies
Format: cell-based, human
Conditions: organoid medium with Wnt3a conditioned medium and R-spondin 1 in place of CHIR99021
Experimental: Hydrogel was dissolved with Cell Recovery Solution (BD Biosciences) for 1 h at 4° C. to detach day 7 tip cell colonies. After washing with additional Cell Recovery Solution, the tip cell colonies were centrifuged at 500 g for 5 min at room temperature. Essential 6 medium containing 0.1 μM LDN193189, 100 ng/ml GDNF, 0.1 μM TTNPB, 200 ng/ml FGF8, 1 μM CHIR99021 or 10% Afamin/Wnt3a conditioned medium (MBL), 200 ng/ml R-spondin 1 (R&D systems), 50 ng/ml EGF, 200 ng/ml FGF1 and 10% Matrigel was applied to the tube including tip cell colonies. After pipetting gently with a wide-mouth micropipette (BMBio) not to break colonies, the suspension was distributed to low-attachment 35 mm dish (Sumitomo Bakelite) at 2 mL/dish. The medium was refreshed every 2 days. On day 4, each colony was placed onto one well of low-attachment 96-well plates in the same medium. After an additional 6 days, the tip region was separated from the reconstituted iUB organoid and treated with the same medium for 35 days.

B1: R-spondin 1: Wnt signaling activator (R&D systems) (protein, UniProt Q2MKA7 21-263, looked up)
R-spondin-1: SRGIKGKRQRRISAEGSQACAKGCELCSEVNGCLKCSPKLFILLERNDIRQVGVCLPSCPPGYFDARNPDMNKCIKCKIEHCEACFSHNFCTKCKEGLYLHKGRCYPACPEGSSAANGTMECSSPAQCEMSEWSPWGPCSKKQQLCGFRRGSEERTRRVLHAPVGDHAACSDTKETRRCTVRRVPCPEGQKRRKGGQGRRENANRNLARKESKEAGAGSRRRKGQQQQQQQGTVGPLTSAGPA
In the case of B1, the “reconstitution of iUB organoids from tip cell colonies” value is reported as “iUB organoids could be reconstituted from tip cell colonies derived from any iPS cell lines”.

— US12577536B2, “Method for isolating ureteric bud tip cells” (KYOTO UNIVERSITY, priority 2019, dated 2026)
